Data reported in US20250296971A1, “GASTRIC INHIBITORY PEPTIDE RECEPTOR LIGANDS” (priority 2021, published 2025).
*1 amine or outer side, *2 acyl side, *3 side chain or, on linkers, in order; H or OH if unused. Bridges are numbered along the chain shown (N, C = ends). Primed or numbered codes have the meaning given here. [ ]: non-standard residue; d: D form. The star is where a group is joined. Ttds = 1,13-diamino-4,7,10-trioxatridecan-succinamic acid, NCCCOCCOCCOCCCNC(=O)CCC(=O)*; Ttds(3) = 1,13-diamino-4,7,10-trioxatridecan-succinamic acid linker; APAc″ = 4-amino-1-carboxymethylpiperidine, NC1CCN(CC(=O)*)CC1; dE(AGLU) = D-glutamic acid bearing 1-amino-1-deoxy-D-glucitol; Ttds(4) = 1,13-diamino-4,7,10-trioxatridecan-succinamic acid; Pro(trans-4-NH2) = O=C([C@@H]1C[C@@H](N[*:3])CN1[*:1])[*:2]; DOTA = O=C(O)CN1CCN(CC(=O)O)CCN(CC(=O)*)CCN(CC(=O)O)CC1; 2Lut = 2,6-lutidylidene bridge between two thiols; Trp(5-Cl) = N[C@@H](Cc1c[nH]c2ccc(Cl)cc12)C(=O)O; Pyridine(2,6-diCH2) = c1cc(C[*:1])nc(C[*:2])c1; Trp(5-F) = N[C@@H](Cc1c[nH]c2ccc(F)cc12)C(=O)O; APAc = 4-amino-1-carboxymethylpiperidine; 1Nal = N[C@@H](Cc1cccc2ccccc12)C(=O)O; mXylylene = c1cc(C[*:1])cc(C[*:2])c1; Glutaryl = O=C(CCCC(=O)[*:2])[*:1]; AGLU = 1-amino-1-deoxy-D-glucitol; Hyp = O=C(O)[C@@H]1C[C@@H](O)CN1; Cha = N[C@@H](CC1CCCCC1)C(=O)O; Cysteamide = C(CS[*:3])N[*:1]; Suc = O=C(CCC(=O)[*:2])[*:1]; Api = NC1(C(=O)O)CCNCC1; Thp = NC1(C(=O)O)CCOCC1; Dap = NC[C@H](N)C(=O)O

B1: Ac-Asp-1Ni-5Clw-Hyp-Glu-leu-[Cys(2Lut)-Thp-Leu-Ile-Cys]-NH2 (peptide)
peptide: Ac-D[1Nal][Trp(5-Cl)][Hyp]E[dL]C[Thp]LIC-NH2
modifications: linker 7-11 via Pyridine(2,6-diCH2)
SMILES: CC[C@H](C)[C@@H]1NC(=O)[C@H](CC(C)C)NC(=O)C2(CCOCC2)NC(=O)[C@@H](NC(=O)[C@@H](CC(C)C)NC(=O)[C@H](CCC(=O)O)NC(=O)[C@@H]2C[C@@H](O)CN2C(=O)[C@H](Cc2c[nH]c3ccc(Cl)cc23)NC(=O)[C@H](Cc2cccc3ccccc23)NC(=O)[C@H](CC(=O)O)NC(C)=O)CSCc2cccc(n2)CSC[C@@H](C(N)=O)NC1=O
B2: Ac-asp-Trp-5Clw-Hyp-Glu-leu-[Cys(2Lut)-Thp-Leu-Ile-Cys]-NH2 (peptide)
peptide: Ac-[dD]W[Trp(5-Cl)][Hyp]E[dL]C[Thp]LIC-NH2
modifications: linker 7-11 via Pyridine(2,6-diCH2)
B3: Ac-Asp-5Fw-5Clw-Hyp-Glu-leu-[Cys(2Lut)-Thp-Leu-Ile-Cys]-NH2 (peptide)
peptide: Ac-D[Trp(5-F)][Trp(5-Cl)][Hyp]E[dL]C[Thp]LIC-NH2
modifications: linker 7-11 via Pyridine(2,6-diCH2)
B4: Ac-Asp-Trp-5Clw-Hyp-Glu-leu-[Cys(2Lut)-Thp-Cha-Ile-Cys]-NH2 (peptide)
peptide: Ac-DW[Trp(5-Cl)][Hyp]E[dL]C[Thp][Cha]IC-NH2
modifications: linker 7-11 via Pyridine(2,6-diCH2)
B5: Ac-Asp-Trp-5Clw-Hyp-Ser-leu-[Cys(2Lut)-Thp-Leu-Ile-Cys]-NH2 (peptide)
peptide: Ac-DW[Trp(5-Cl)][Hyp]S[dL]C[Thp]LIC-NH2
modifications: linker 7-11 via Pyridine(2,6-diCH2)
B6: Ac-Asp-Trp-5Clw-Hyp-Val-leu-[Cys(2Lut)-Thp-Leu-Ile-Cys]-NH2 (peptide)
peptide: Ac-DW[Trp(5-Cl)][Hyp]V[dL]C[Thp]LIC-NH2
modifications: linker 7-11 via Pyridine(2,6-diCH2)
B7: Ac-Asp-Trp-5Clw-Hyp-Ala-leu-[Cys(2Lut)-Thp-Leu-Ile-Cys]-NH2 (peptide)
peptide: Ac-DW[Trp(5-Cl)][Hyp]A[dL]C[Thp]LIC-NH2
modifications: linker 7-11 via Pyridine(2,6-diCH2)
B8: DOTA-APAc-Asp-Trp-5Clw-Hyp-Glu-leu-[Cys(2Lut)-Thp-Leu-Ile-AET] (peptide)
peptide: {DOTA-APAc″}-DW[Trp(5-Cl)][Hyp]E[dL]C[Thp]LI[Cysteamide]
modifications: linker (positions not given here) via Pyridine(2,6-diCH2); not fully specified (bridges); printed as DOTA-APAc-Asp-Trp-5Clw-Hyp-Glu-leu-[Cys(2Lut)-Thp-Leu-Ile-AET]
B9: DOTA-APAc-Asp-Trp-5Clw-Hyp-Glu-leu-[Dap(3MeBn)-Thp-Leu-Ile-AET] (peptide)
peptide: {DOTA-APAc″}-DW[Trp(5-Cl)][Hyp]E[dL][Dap][Thp]LI[Cysteamide]
modifications: linker (positions not given here) via mXylylene; not fully specified (bridges); printed as DOTA-APAc-Asp-Trp-5Clw-Hyp-Glu-leu-[Dap(3MeBn)-Thp-Leu-Ile-AET]
B10: HO-Succinyl-Trp-5Clw-Hyp-Glu-leu-[Cys(2Lut)-Thp-Leu-Ile-Cys]-Ttds-Lys(DOTA)-NH2 (peptide)
peptide: Suc-W[Trp(5-Cl)][Hyp]E[dL]C[Thp]LIC-{Ttds(3)-Lys(DOTA)-NH2}
modifications: linker 6-10 via Pyridine(2,6-diCH2)
B11: HO-Succinyl-Trp-5Clw-Hyp-Glu-leu-[Cys(2Lut)-Thp-Leu-Ile-Cys]-APAc-Lys(DOTA)-NH2 (peptide)
peptide: Suc-W[Trp(5-Cl)][Hyp]E[dL]C[Thp]LIC-{APAc-Lys(DOTA)-NH2}
modifications: linker 6-10 via 2Lut
B12: AGLU-Glutar-APAc-Asp-Trp-5Clw-Tap-Glu-leu-[Cys(2Lut)-Apc(DOTA-glu(AGLU))-Leu-Ile-Cys]-APAc-glu(AGLU)-NH2 (peptide)
peptide: {AGLU-Glutaryl-APAc}-DW[Trp(5-Cl)][Pro(trans-4-NH2)]E[dL]C[Api]LIC-{APAc-dE(AGLU)-NH2}
modifications: linker 7-11 via Pyridine(2,6-diCH2); not fully specified (residue 8)
B13: HO-Succinyl-Trp-5Clw-Hyp-Glu-leu-[Cys(2Lut)-Apc(DOTA)-Leu-Ile-AET] (peptide)
peptide: Suc-W[Trp(5-Cl)][Hyp]E[dL]C[Api](DOTA)LI[Cysteamide]
modifications: linker 6-10 via 2Lut
B14: DOTA-Ttds-Asp-Trp-5Clw-Tap-Glu-leu-[Cys(2Lut)-Apc-Leu-Ile-AET] (peptide)
peptide: {DOTA-Ttds}-DW[Trp(5-Cl)][Pro(trans-4-NH2)]E[dL]C[Api]LI[Cysteamide]
modifications: linker 7-11 via Pyridine(2,6-diCH2)

Target: human Gastric Inhibitory Peptide Receptor (GIPR) (human) (UniProt P48546)
Sequence (P48546 22-466 limits assumed): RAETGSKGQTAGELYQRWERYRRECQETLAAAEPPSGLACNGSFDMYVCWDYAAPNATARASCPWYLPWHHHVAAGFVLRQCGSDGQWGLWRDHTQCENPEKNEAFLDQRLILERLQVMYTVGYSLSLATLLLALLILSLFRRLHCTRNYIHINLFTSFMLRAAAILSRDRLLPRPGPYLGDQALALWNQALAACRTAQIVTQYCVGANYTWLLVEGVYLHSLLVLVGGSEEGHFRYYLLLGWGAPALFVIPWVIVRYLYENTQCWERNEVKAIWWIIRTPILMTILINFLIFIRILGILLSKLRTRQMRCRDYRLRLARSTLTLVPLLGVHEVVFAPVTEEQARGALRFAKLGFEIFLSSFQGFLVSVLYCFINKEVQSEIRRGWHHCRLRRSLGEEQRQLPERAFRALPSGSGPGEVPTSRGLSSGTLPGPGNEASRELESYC
Experiment: FACS competition vs biotinylated GIP-057 on CHO-K1-hGIPR cells; category A: pIC50 >8.0

pIC50, > 8 pic50:
B1
B2
B3
B4
B5
B6
B7

Target: biotinylated extracellular domain of the human GIP receptor (bioGIPR) (human) (UniProt P48546)
Sequence (P48546 24-138 limits assumed): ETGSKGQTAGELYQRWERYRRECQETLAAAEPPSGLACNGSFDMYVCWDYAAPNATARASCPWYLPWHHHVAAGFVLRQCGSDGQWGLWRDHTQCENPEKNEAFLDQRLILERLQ
Experiment: SPR single cycle kinetics, bioGIPR captured on chip; category A: pKD >9.0

pKD, > 9 pkd:
B8
B9
B10
B11
B12
B13
B14

Target: biotinylated extracellular domain of the human GIP receptor (bioGIPR) (human) (UniProt P48546)
Experiment: SPR single cycle kinetics, bioGIPR captured on chip; category A: t1/2 >15 min

t1/2, > 15 min:
B8
B9
B10
B11
B12
B13
B14

Target: human Gastric Inhibitory Peptide Receptor (human) (UniProt P48546)
Sequence (P48546 22-466 limits assumed): as the sequence (P48546 22-466 limits assumed) above
Experiment: FACS competition with GIP-057 on CHO-K1-hGIPR cells; pIC50 category A: >8.0

pIC50, > 8 pic50:
B8
B9
B10
B11
B12
B13
B14
